Laboratory results: patent publication US20200024319A1 (Amgen, published 2020)

Assays:
cynomolgus monkey IL-2 = target: T1, cynomolgus monkey IL-2 (cynomolgus monkey, UniProt Q29615 21-154); assay: BIACORE
T1 construct: also called cyno IL-2

wild-type human IL-2 = target: T2, wild-type human IL-2 (human, UniProt P60568 21-153); assay: BIACORE
T2 construct: also called hIL-2

[1] = target: T3, CD25 (IL-2Rα) on the surface of T cells (human, UniProt P01589 22-272); assay: flow cytometry, binding to CD25 on the surface of activated T cells
T3 construct: whole, on cells; also called cell surface CD25
T3 sequence (looked up): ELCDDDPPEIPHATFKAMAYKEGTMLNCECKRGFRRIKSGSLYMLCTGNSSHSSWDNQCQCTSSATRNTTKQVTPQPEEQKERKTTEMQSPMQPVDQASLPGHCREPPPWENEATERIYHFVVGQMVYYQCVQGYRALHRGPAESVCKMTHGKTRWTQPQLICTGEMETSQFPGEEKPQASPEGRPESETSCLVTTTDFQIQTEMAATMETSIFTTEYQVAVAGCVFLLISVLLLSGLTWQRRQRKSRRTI

[2] = target: T3, CD25 (IL-2Rα) on the surface of T cells; assay: binding to cell surface CD25 (method not described)

B1: 14D7 (antibody, V domains shown)
VH: QVQLQESGPGLVKPSQTLSLTCTVSGGSISSGGYYWNWIRQHPGKGLEWIGYIYYSGNTHYNPSLKSRVTISVDTSKNQFSLKLSSVIAADTAVYYCARDWGRDAFDIWGQGTMVTVSS
VL: DIQMTQSPSSLSASVGDRVTITCRASQTISSYLNWYQQKPGKAPKVLIYAASSFQSGVPSRFSGSGSGTDFTLTISSLQPEDFATYYCQQSHYIPRTFGQGTKVEIK
- Kd (cynomolgus monkey IL-2): ~0.14 nM
- Kd (wild-type human IL-2): ~0.3 nM

B2: HaMut1D (V69A, Q74P, N88D, C125A) (ligand)
chain: APTSSSTKKTQLQLEHLLLDLQMILNGINNYKNPKLTRMLTFKFYMPKKATELKHLQCLEEELKPLEEALNLAPSKNFHLRPRDLISDINVIVLELKGSETTFMCEYADETATIVEFLNRWITFAQSIISTLT
notes: not shown: C-terminal FLAG and poly-His tag
- Kd [1]: ~2 nM

B3: HaMut5D (K48E, V69A, Q74P, N88D, C125A) (ligand)
chain: APTSSSTKKTQLQLEHLLLDLQMILNGINNYKNPKLTRMLTFKFYMPEKATELKHLQCLEEELKPLEEALNLAPSKNFHLRPRDLISDINVIVLELKGSETTFMCEYADETATIVEFLNRWITFAQSIISTLT
notes: human IL-2 mutein; not shown: C-terminal FLAG and poly-His tag
- binding result [1]: binds

B4: HaMut4D (T37A, V69A, Q74P, N88D, C125A) (ligand)
chain: APTSSSTKKTQLQLEHLLLDLQMILNGINNYKNPKLARMLTFKFYMPKKATELKHLQCLEEELKPLEEALNLAPSKNFHLRPRDLISDINVIVLELKGSETTFMCEYADETATIVEFLNRWITFAQSIISTLT
notes: as for B3
- binding result [1]: binds

B5: HaMut6D (E68D, V69A, Q74P, N88D, C125A) (ligand)
chain: APTSSSTKKTQLQLEHLLLDLQMILNGINNYKNPKLTRMLTFKFYMPKKATELKHLQCLEEELKPLEDALNLAPSKNFHLRPRDLISDINVIVLELKGSETTFMCEYADETATIVEFLNRWITFAQSIISTLT
notes: as for B3
- binding result [1]: binds

B6: HaMut7D (N71R, V69A, Q74P, N88D, C125A) (ligand)
chain: APTSSSTKKTQLQLEHLLLDLQMILNGINNYKNPKLTRMLTFKFYMPKKATELKHLQCLEEELKPLEEALRLAPSKNFHLRPRDLISDINVIVLELKGSETTFMCEYADETATIVEFLNRWITFAQSIISTLT
notes: as for B3
- Kd [1]: ~0.2 nM

B7: HaMut2D (N30S, V69A, Q74P, N88D, C125A) (ligand)
chain: APTSSSTKKTQLQLEHLLLDLQMILNGINSYKNPKLTRMLTFKFYMPKKATELKHLQCLEEELKPLEEALNLAPSKNFHLRPRDLISDINVIVLELKGSETTFMCEYADETATIVEFLNRWITFAQSIISTLT
notes: as for B3
- binding result [1]: binds

B8: HaMut3D (K35R, V69A, Q74P, N88D, C125A) (ligand)
chain: APTSSSTKKTQLQLEHLLLDLQMILNGINNYKNPRLTRMLTFKFYMPKKATELKHLQCLEEELKPLEEALNLAPSKNFHLRPRDLISDINVIVLELKGSETTFMCEYADETATIVEFLNRWITFAQSIISTLT
notes: as for B3
- binding result [1]: binds

B9: HaMut8D (K35R, K48E, E68D, N88D, C125A) (ligand)
chain: APTSSSTKKTQLQLEHLLLDLQMILNGINNYKNPRLTRMLTFKFYMPEKATELKHLQCLEEELKPLEDVLNLAQSKNFHLRPRDLISDINVIVLELKGSETTFMCEYADETATIVEFLNRWITFAQSIISTLT
notes: as for B3
- binding result [1]: binds

B10: haD5 fused to the amino terminus of Fc, separated by a GGGGS linker (Fc fusion)
chain: APTSSSTKKTQLQLQNLLLDLQMILNGISNHKNPRLARMLTFKFYMPEKATELKHLQCLEEELKPLEEALRLAPSKNFHLRPRDLISDINVIVLELKGSETTFMCEYADETATIVEFLNRWITFSQSIISTLTGGGGS
notes: IL-2 mutein N-terminal of the Fc; dimer by the Fc; also called haD5 Fc fusion; not shown: IgG1 Fc with an effector function mutation (A327Q, L234A+L235A or N297G)
- binding result [2]: binds

B11: 9D6 (antibody, V domains shown)
VH: EVQLVQSGAEVKKPGESLKISCKGSGYRFTSYWIGWVRQMPGKGLEWMGIIHPGDSDTRYSPSFQGQVTISADKSISTAYLQWSSLKASDTAIYYCTRQGRSFYYYGMDVWGQGTTVTVSS
VL: DIVMTQTPLSLPVTPGEPASISCRSSQSLLDSDEGNTYLDWYLQKPGQSPQLLIYTLSYRASGVPDRFSGTGSDTDFTLKISRVEAEDVGVYYCMQRIEFPLTFGGGTKVEIK
- Kd (cynomolgus monkey IL-2): ~0.016 nM
- Kd (wild-type human IL-2): ~0.041 nM

B12: 26H7 (antibody, V domains shown)
VH: EVQLVQSGAEVKKPGESLKISCKGSGYRFTNYWIGWVRQMPGKGLEWMGIIYPGDSDTKYSPSFQGQVTISADKSISTAYLQWSSLKASDTAMYYCARHGGYSGRSYYYGMDVWGQGTAVTVSS
VL: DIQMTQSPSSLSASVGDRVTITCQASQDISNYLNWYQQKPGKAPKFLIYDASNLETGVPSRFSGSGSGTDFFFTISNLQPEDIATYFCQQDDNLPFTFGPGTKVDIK
- Kd (cynomolgus monkey IL-2): ~0.31 nM
- Kd (wild-type human IL-2): ~0.0013 nM

B13: 18F3 (antibody, V domains shown)
VH: QVQLQESGPGLVKPSQTLSLTCTVSGGSISSGGYYWSWIRQHPGKGLEWIGYIYYSGSTDYNPSLKSRGIISGDTSKNQFSLKLNSVTAADTAVYYCAREGRFGELGSYYFDYWGQGTLVTVSS
VL: SYELTQPPSVSVSPGQTARIACSGDALPRKFAYWYQQKSGQAPVLVISEDSRRPSGIPERFSGSSSGTMATLTISGAQVEDEADYYCFSTDSSANHRVFGGGTKLTVL
- Kd (cynomolgus monkey IL-2): ~0.05 nM
- Kd (wild-type human IL-2): ~0.05 nM

B14: 2H11 (antibody, V domains shown)
VH: EVQLVQSGAEVKKPGESLKISCKGSGYNFTTYWIGWVRQMPGKGLEWMGIIYPGDSDTRYSPSFQGQVTISADKSINTAYLQWSSLKASDTAIYYCARDTGYFDYWGQGTLVTVSS
VL: SYELTQPPSVSVSPGQTARITCSGDALPRKFAYWYQQKSGQAPVLVIYEDRKRPSGIPERFSGSSSGTMATLTISGAQVEDEADYYCYSTDRSGDHVVFGGGTKLTVL
- Kd (cynomolgus monkey IL-2): ~0.008 nM
- Kd (wild-type human IL-2): ~0.03 nM

B15: 26C12 (antibody, V domains shown)
VH: EVQLVQSGAEVKKPGESLKISCKGSGYRFTSYWIGWVRQMPGKGLEWMGIIFPGDSDTRYSPSFQGQVTISADKSITTAYLQWSSLKASDTAIYYCARHGHGSSSGRTYYYGLDVWGQGTTVTVSS
VL: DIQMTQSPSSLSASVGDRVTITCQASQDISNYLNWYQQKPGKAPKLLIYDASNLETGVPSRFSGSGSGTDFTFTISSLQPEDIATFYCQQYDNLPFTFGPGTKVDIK
- Kd (cynomolgus monkey IL-2): ~0.13 nM
- Kd (wild-type human IL-2): ~0.27 nM

B16: 14G7 (antibody, V domains shown)
VH: EVQLVQSGAEVKKPGESLKISCKGSGYSFTDYWIGWVRQMPGKGLEWMGIIYPYDSDTRYSPSFQGQVTLSADKSISTAYLRWSSLKASDTAMYYCARHRGGRSYYYGMDVWGQGTTVTVSS
VL: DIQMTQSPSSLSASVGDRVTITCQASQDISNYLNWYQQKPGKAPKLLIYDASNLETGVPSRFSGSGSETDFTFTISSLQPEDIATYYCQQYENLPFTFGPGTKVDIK
- Kd (cynomolgus monkey IL-2): ~0.13 nM
- Kd (wild-type human IL-2): ~0.28 nM

B17: 2C3 (antibody, V domains shown)
VH: EVQLVQSGAEVKKPGESLKISCKGSGYRFTSYWIGWVRQMPGKGLEWMGIIYPGDSDTRYSPSFQGQVTISADKSISAAYLQWSSLKASDTAMYYCARQQVAGMLDYWGQGTLVTVSS
VL: EIVLTQSPGTLSLSPGERATLSCRASQSFSSSYLVWYQQKPGQAPRLLIYGASSRATGIPDRFGGSGSGTDFTLTISRLEPEDFAVYYCQQYGSSPLTFGGGTKVEIK
- Kd (cynomolgus monkey IL-2): ~0.0012 nM

B18: 9B10 (antibody, V domains shown)
VH: QVQLVESGGGVVQPGRSLRLSCAASGFTFSSYAMHWVRQAPGKGLEWVAVIWYDGINKYYADSVKGRFTISRDNSKNTLYLQMNSLRAEDTAVYYCARGSYYDSSGYYFGEDFDYWGQGTLVTVSS
VL: DIVMTQTPLSSPVTLGQPASISCRSSHNLLHSDGNTYLSWLQQRPGQPPRLLIYEISNRFSGVPDRFSGSGAGTDFTLKISRVEAEDVGVYYCMQVTQFPTFGGGTKVEIK
- Kd (cynomolgus monkey IL-2): ~0.16 nM
- Kd (wild-type human IL-2): ~0.11 nM
